Test results: publication PMC11389781

Assays:
[1] = target: human CaV2.2 pore-forming subunit α1B (CACNA1B), wild type (human) (UniProt Q00975)
[2] = target: human CaV2.2 α1B D185C (VSD I labelling variant) (human) (UniProt Q00975)
[3] = target: human CaV2.2 α1B N1580C (VSD IV labelling variant) (human) (UniProt Q00975)
[4] = target: human CaV2.2 α1B N1266C (VSD III labelling variant) (human) (UniProt Q00975)

Q: What does the source list for “Gβγ complex of human Gβ1 and Gγ2 (from UniProt P62873 1-340; P59768 1-71)”?
A: shift of V0.5 of CaV2.2 pore opening toward positive potentials by coexpressed Gβγ (tail currents, cut-open oocyte voltage clamp, 20 ms pulses) [1]: 14 mV; shift of V0.5 of VSD I activation by coexpressed Gβγ (voltage-clamp fluorometry, ΔF-V) [2]: 21 mV; shift of V0.5 of VSD IV activation by coexpressed Gβγ (voltage-clamp fluorometry, ΔF-V); modest inhibition [3]: 13 mV; shift of V0.5 of VSD III activation by coexpressed Gβγ (voltage-clamp fluorometry, ΔF-V); VSD III was not modulated by Gβγ [4]: -0.1 mV
